Drawing on patent KR20230128271A (dated 2023), this text covers EC50 for two molecules.

For this experiment, the target named is T1, human recombinant HER3 (coated on ELISA plate) (human, UniProt P21860 20-643).
T1 construct: also called 인간 재조합 HER3
The experiment can be described thus: ELISA; plate coated with human recombinant HER3; serial dilutions 0-100 μg/ml; goat anti-human IgG F(ab')2-HRP; absorbance at 450 nm. A general note: ELISA stands for enzyme-linked immunosorbent assay.

T1 sequence (P21860 20-643 limits assumed): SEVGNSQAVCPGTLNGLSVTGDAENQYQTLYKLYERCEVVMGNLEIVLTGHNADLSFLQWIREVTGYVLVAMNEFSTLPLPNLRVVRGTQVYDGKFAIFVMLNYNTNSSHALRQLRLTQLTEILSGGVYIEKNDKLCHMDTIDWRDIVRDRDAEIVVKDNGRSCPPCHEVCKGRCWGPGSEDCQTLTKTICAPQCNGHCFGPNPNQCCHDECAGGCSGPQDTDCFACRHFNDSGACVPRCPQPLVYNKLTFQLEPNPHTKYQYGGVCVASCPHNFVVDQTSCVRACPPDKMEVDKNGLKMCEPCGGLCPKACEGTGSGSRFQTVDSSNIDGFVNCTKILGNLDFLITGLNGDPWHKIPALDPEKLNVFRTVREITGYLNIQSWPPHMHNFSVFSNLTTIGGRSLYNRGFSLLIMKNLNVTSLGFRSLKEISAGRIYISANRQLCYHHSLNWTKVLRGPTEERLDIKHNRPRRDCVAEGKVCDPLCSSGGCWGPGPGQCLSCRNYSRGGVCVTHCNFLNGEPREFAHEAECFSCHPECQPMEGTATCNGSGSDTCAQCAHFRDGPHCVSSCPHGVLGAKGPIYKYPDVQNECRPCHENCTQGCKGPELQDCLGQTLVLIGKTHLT

B1: 225Ac-HER3-ARC (Ac225-labelled, DOTA-conjugated anti-HER3 monoclonal antibody, heavy chain SEQ ID NO: 77 and light chain SEQ ID NO: 78) (antibody, V domains shown)
VH: QVQLVESGGGLVKPGGSLRLSCAASGFTFSDYAMSWIRQAPGKGLEWVSTISDGGTYTYYPDSVKGRFTISRDNAKNSLYLQMNSLRAEDTAVYYCAREWGDYDGFDYWGQGTLVTVSS
VL: DIQMTQSPSSLSASVGDRVTITCRASQEISGYLSWYQQKPGKAPKRLIYAASTLDSGVPSRFSGSGSGTEFTLTISSLQPEDFATYYCLQYDSYPYTFGQGTKLEIKR
modifications: DOTA chelator conjugated with p-SCN-Bn-DOTA and chelating actinium-225; sites and chain not stated
notes: also called Ac225 표지된 DOTA-접합된 항-HER3 모노클로날 항체
Consider B1, for which the concentration for a half-maximal effect (EC50) – broadly, the concentration that produces a half-maximal response – is 1.7 ng/mL.

B2: anti-HER3 IgG monoclonal antibody consisting of heavy chain SEQ ID NO: 77 and light chain SEQ ID NO: 78 (unmodified) (antibody, V domains shown)
VH: B1 VH
VL: B1 VL
notes: It was detected with goat anti-human IgG F(ab')2-HRP; also called 항-HER3; 비변형된 항-HER3 mAb
With B2, the EC50 stood at 2.2 ng/mL.
